Test results published in US20100036095A1.

How the values were obtained:
[1] = molecular target: human CD59 W40A (human) (UniProt P13987); experiment: flow cytometry on CHO cells expressing the CD59 form
[2] = molecular target: human CD59 20A23A (human) (UniProt P13987); experiment: as above
[3] = molecular target: human CD59 51A plus 20-23A (human) (UniProt P13987); experiment: as above
[4] = molecular target: human CD59 H44A (human) (UniProt P13987); experiment: as above
[5] = molecular target: human CD59 T52A (human) (UniProt P13987); experiment: as above
[6] = molecular target: human CD59 D24A (human) (UniProt P13987); experiment: as above
[7] = molecular target: human CD59 F42A (human) (UniProt P13987); experiment: as above
[8] = molecular target: wild type human CD59, epitope-tagged, GPI-anchored on CHO cells (human) (UniProt P13987); experiment: as above
[9] = molecular target: human CD59 F23G (human) (UniProt P13987); experiment: as above
[10] = molecular target: human CD59 5R (human) (UniProt P13987); experiment: as above
[11] = molecular target: human CD59 9R (human) (UniProt P13987); experiment: as above
[12] = molecular target: C8/C9 (complement components C8 and C9 of normal human serum, in the assembling membrane attack complex) (human) (UniProt P07357); experiment: cell-based or functional assay
Chain of C8/C9 (complement components C8 and C9 of normal human serum, in the assembling membrane attack complex) (human) (P07357 31-584 limits assumed, chain 1 of 4): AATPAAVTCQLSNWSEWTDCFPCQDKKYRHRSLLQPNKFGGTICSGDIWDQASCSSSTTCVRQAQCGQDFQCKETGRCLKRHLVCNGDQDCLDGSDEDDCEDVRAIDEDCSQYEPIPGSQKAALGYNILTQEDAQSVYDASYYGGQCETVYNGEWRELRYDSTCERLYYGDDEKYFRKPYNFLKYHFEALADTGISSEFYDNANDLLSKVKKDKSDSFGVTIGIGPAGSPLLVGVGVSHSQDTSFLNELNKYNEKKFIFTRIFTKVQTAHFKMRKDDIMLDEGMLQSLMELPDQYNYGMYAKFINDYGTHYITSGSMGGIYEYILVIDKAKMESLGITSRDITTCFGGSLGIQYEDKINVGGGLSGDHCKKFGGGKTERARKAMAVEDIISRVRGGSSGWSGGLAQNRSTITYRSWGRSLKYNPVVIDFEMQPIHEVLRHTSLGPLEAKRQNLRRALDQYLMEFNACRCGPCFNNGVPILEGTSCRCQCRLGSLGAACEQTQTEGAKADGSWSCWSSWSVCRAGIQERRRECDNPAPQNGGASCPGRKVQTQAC
Chain of C8/C9 (complement components C8 and C9 of normal human serum, in the assembling membrane attack complex) (human) (P07358 55-591 limits assumed, chain 2 of 4, further chain): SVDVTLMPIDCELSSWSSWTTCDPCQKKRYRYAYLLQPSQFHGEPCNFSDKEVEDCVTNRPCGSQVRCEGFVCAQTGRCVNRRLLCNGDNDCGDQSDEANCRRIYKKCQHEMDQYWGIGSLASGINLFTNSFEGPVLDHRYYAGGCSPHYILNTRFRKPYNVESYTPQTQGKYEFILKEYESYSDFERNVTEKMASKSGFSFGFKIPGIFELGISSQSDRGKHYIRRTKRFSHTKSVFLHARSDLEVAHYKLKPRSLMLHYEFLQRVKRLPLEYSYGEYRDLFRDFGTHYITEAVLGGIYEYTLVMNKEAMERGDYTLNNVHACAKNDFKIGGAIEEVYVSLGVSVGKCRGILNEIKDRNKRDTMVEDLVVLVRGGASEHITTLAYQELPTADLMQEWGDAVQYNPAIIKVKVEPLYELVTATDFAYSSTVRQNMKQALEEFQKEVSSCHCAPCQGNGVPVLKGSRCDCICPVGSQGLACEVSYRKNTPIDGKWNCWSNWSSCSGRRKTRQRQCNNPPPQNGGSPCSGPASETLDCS
Chain of C8/C9 (complement components C8 and C9 of normal human serum, in the assembling membrane attack complex) (human) (P07360 21-202 limits assumed, chain 3 of 4, further chain): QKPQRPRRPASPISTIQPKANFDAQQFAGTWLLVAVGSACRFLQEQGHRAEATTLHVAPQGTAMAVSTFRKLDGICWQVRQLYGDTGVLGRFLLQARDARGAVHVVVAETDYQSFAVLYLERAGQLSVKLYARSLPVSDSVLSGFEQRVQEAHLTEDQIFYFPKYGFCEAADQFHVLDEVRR
Chain of C8/C9 (complement components C8 and C9 of normal human serum, in the assembling membrane attack complex) (human) (P02748 22-559 limits assumed, chain 4 of 4, further chain): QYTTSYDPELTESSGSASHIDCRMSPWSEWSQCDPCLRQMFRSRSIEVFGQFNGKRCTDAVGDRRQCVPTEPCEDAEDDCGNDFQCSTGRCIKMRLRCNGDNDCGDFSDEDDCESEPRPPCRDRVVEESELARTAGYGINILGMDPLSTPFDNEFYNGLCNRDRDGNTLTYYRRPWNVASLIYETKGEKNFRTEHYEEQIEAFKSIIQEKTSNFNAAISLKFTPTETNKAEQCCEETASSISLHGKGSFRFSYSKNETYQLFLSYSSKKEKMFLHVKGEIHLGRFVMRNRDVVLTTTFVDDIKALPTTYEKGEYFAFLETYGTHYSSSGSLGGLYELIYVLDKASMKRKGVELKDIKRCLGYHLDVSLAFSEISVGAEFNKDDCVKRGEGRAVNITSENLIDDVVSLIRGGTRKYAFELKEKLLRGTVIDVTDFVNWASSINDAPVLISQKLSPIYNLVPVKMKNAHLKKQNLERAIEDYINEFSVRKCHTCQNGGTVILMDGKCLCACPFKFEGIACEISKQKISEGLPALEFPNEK

Chain of human CD59 F42A (human) (P13987 26-102 F67A): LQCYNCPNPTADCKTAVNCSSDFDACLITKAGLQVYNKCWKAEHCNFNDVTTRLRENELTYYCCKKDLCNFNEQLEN
Chain of human CD59 51A plus 20-23A (human) (P13987 other isoform, or with tags, fused parts or gaps): as the sequence (P13987 26-102 F67A) above, with S20A, S21A, D22A, F23A, A42F, T51A counted along it
Chain of human CD59 F23G (human) (P13987 26-102 F48G): as the sequence (P13987 26-102 F67A) above, with F23G, A42F counted along it
Chain of human CD59 20A23A (human) (P13987 other isoform, or with tags, fused parts or gaps): as the sequence (P13987 26-102 F67A) above, with S20A, F23A, A42F counted along it
Chain of human CD59 H44A (human) (P13987 26-102 H69A): as the sequence (P13987 26-102 F67A) above, with A42F, H44A counted along it
Chain of human CD59 W40A (human) (P13987 26-102 W65A): as the sequence (P13987 26-102 F67A) above, with W40A, A42F counted along it
Chain of human CD59 D24A (human) (P13987 26-102 D49A): as the sequence (P13987 26-102 F67A) above, with D24A, A42F counted along it
Chain of human CD59 T52A (human) (P13987 26-102, stated change not applied): as the sequence (P13987 26-102 F67A) above, with A42F counted along it
Chain of wild type human CD59, epitope-tagged, GPI-anchored on CHO cells (human) (P13987 26-102 limits assumed): as the sequence (P13987 26-102 F67A) above, with A42F counted along it
Chain of human CD59 9R (human) (P13987 26-102): as the sequence (P13987 26-102 F67A) above, with A42F counted along it
Chain of human CD59 5R (human) (P13987 26-102): as the sequence (P13987 26-102 F67A) above, with A42F counted along it

Row | percent of relative mean fluorescence compared to wt CD59 [1] [%] | percent of relative mean fluorescence compared to wt CD59 [2] [%] | percent of relative mean fluorescence compared to wt CD59 [3] [%] | percent of relative mean fluorescence compared to wt CD59 [4] [%] | percent of relative mean fluorescence compared to wt CD59 [5] [%] | percent of relative mean fluorescence compared to wt CD59 [6] [%] | percent of relative mean fluorescence compared to wt CD59 [7] [%] | percent of relative mean fluorescence compared to wt CD59 [8] [%] | percent of relative mean fluorescence compared to wt CD59 [9] [%] | percent of relative mean fluorescence compared to wt CD59 [10] [%] | percent of relative mean fluorescence compared to wt CD59 [11] [%] | increase in inhibitory activity compared to the wt protein [12] [% increase] | inhibitory activity relative to the single mutant T29A [12] | Substance
1 | 6.2 | 98.1 | 92.3 | 88.8 | 99.2 | 3.5 | 99.7 | 100 | 98.8 |  |  |  |  | anti-CD59 mAb MEM43 (antibody)
2 | 0.7 | 97.7 | 98.1 | 85.9 | 99.2 | 1.9 | 99.9 | 100 | 98.9 | 8.2 | 98.4 |  |  | anti-CD59 mAb MEM43.5 (antibody)
3 | 1 | 35.7 | 18.3 | 58.7 | 99.3 | 5 | 99.8 | 100 | 99.3 | 47.9 | 100 |  |  | anti-CD59 mAb YTH53.1 (antibody)
4 |  |  |  |  |  |  |  |  |  |  |  | 165 | 2 fold of T29A | human CD59 51A20A (from UniProt P13987 26-102)
